Consider one protein from article PMC5595237 (Nature, 2017).

This data set deals with the molecule itself. As to the kind of experiment: SEC.

B1: full-length human adiponectin (ligand)
chain: ETTTQGPGVLLPLPKGACTGWMAGIPGHPGHNGAPGRDGRDGTPGEKGEKGDPGLIGPKGDIGETGVPGAEGPRGFPGIQGRKGEPGEGAYVYRSAFSVGLETYVTIPNMPIRFTKIFYNQQNHYDGSTGKFHCNIPGLYYFAYHITVYMKDVKVSLFKKDKAMLFTYDQYQENNVDQASGSVLLHLEVGDQVWLQVYGEGERNGLYADNDNDSTFTGFLLYHDTN
B1: the binding result was “binds”.
